Twelve molecules from patent US20240150490A1 (MABPRO A S, published 2024) can be followed below.

Experiment [1] deals with CA IX expressed by cells (C-33a_CA IX transfectants; hypoxic BT-20, JIMT-1, 8-MG-BA and 42-MG-BA cells) (human, UniProt Q16790 38-459). In words: cell-based or functional assay.
In another experiment the target is recombinant human CA IX (human, UniProt Q16790 38-414). The experiment can be described thus: SPR (Biacore 2000), antibody captured on CM5 chip, rh CA IX in flow, 25 C. As to the method:
In order to determinate the antigen-binding affinity of humanized variants, measurements of affinity constant (KD) for antibodies binding to CA IX were performed by SPR using a Biacore 2000 (T200 in case of CA9hu-2) instrument (GE Healthcare, Piscataway, NJ USA). Each humanized antibody variant was captured on the CM5 sensor chip and recombinant human CA IX (rh CA IX; 42 kDa; R&D Systems, Inc., Minneapolis MN, USA) protein as an antigen was added to the buffer flowing over the chip. The setting details of quantitative interaction analysis between humanized antibodies and rh CA IX were as follows: flow rate 30 μl/min; analysis temperature 25° C.; analysis buffer (10mM HEPES pH 7.4, 150 mM NaCl, […], 0.05% Tween 20). Results from SPR analysis are expressed as the equilibrium dissociation constant (KD) (Table 7).
For orientation: Surface plasmon resonance follows binding to a sensor surface in real time, without labels.

B1: CA9hu-1_HC4LC4 (antibody, V domains shown)
VH: EVQLVESGGGLVQPGGSLRLSCAASGFTFTDYYMHWVRQAPGRGLEWVAFIRNKASGYTPQYSASVKGRFTISRDNAENSLYLQMNSLRAEDTAVYYCVRGGHAGSNYWYFDVWGKGTTVTVSS
VL: DIQMTQSPSSLSASVGDRVTINCHVSQNINVWLSWYQQKPGEAPKLLIYQASNLHTGVPSRFSGSGSGTGFTLTIRSLQPEDYATYYCQQGQSYPFTFGQGTKLEIK
notes: Humanized from murine VII/20; also called HC4LC4 (CA9hu-1)
The term Kd denotes the constant that tells how readily two partners part at equilibrium. B1: the “ADCC reporter activity, induction over no Ab, BT-20 cells” value in experiment [1] is over 25 fold. Further, the Kd with recombinant human CA IX amounted to 15.2 nM.

B2: CA9hu-1_HC3LC2 (antibody, V domains shown)
VH: QVQLVQSGGGLVQPGRSLRLSCTASGFTFTDYYMHWVRQAPGKGLEWVGFIRNKASGYTPQYSASVKGRFTISRDDSKTIAYLQMNSLKTEDTAVYYCVRGGHAGSNYWYFDVWGQGTLVTVSS
VL: DIQMTQSPSTLSASVGDRVTITCHVSQNINVWLSWYQQKPGNAPKLLIYQASNLHTGVPSRFSGSGSGTEFTLTIGSLQPDDFVTYYCQQGQSYPFTFGQGTKVEIK
notes: Humanized from murine VII/20; also called HC3LC2 (CA9hu-1)
Turning to B2, in the experiment with recombinant human CA IX, the Kd was determined as 81 nM.

B3: CA9hu-1_HC4LC1 (antibody, V domains shown)
VH: EVQLVESGGGLVQPGGSLRLSCAASGFTFTDYYMHWVRQAPGRGLEWVAFIRNKASGYTPQYSASVKGRFTISRDNAENSLYLQMNSLRAEDTAVYYCVRGGHAGSNYWYFDVWGKGTTVTVSS
VL: DIQMTQSPSSLSASVGDRVTITCHVSQNINVWLSWYQQKPGKAPNLLIYQASNLHTGVPSRFSGSGSGTHFTLTISSLQPEDIATYYCQQGQSYPFTFGGGTKVEIK
notes: Humanized from murine VII/20; also called HC4LC1 (CA9hu-1)
As for B3, the Kd with recombinant human CA IX stood at 15.2 nM.

B4: CA9hu-1_HC4LC2 (antibody, V domains shown)
VH: EVQLVESGGGLVQPGGSLRLSCAASGFTFTDYYMHWVRQAPGRGLEWVAFIRNKASGYTPQYSASVKGRFTISRDNAENSLYLQMNSLRAEDTAVYYCVRGGHAGSNYWYFDVWGKGTTVTVSS
VL: DIQMTQSPSTLSASVGDRVTITCHVSQNINVWLSWYQQKPGNAPKLLIYQASNLHTGVPSRFSGSGSGTEFTLTIGSLQPDDFVTYYCQQGQSYPFTFGQGTKVEIK
notes: Humanized from murine VII/20; also called HC4LC2 (CA9hu-1)
In the case of B4, in the experiment with recombinant human CA IX, the Kd came to 9.1 nM.

B5: CA9hu-1_HC3LC1 (antibody, V domains shown)
VH: QVQLVQSGGGLVQPGRSLRLSCTASGFTFTDYYMHWVRQAPGKGLEWVGFIRNKASGYTPQYSASVKGRFTISRDDSKTIAYLQMNSLKTEDTAVYYCVRGGHAGSNYWYFDVWGQGTLVTVSS
VL: DIQMTQSPSSLSASVGDRVTITCHVSQNINVWLSWYQQKPGKAPNLLIYQASNLHTGVPSRFSGSGSGTHFTLTISSLQPEDIATYYCQQGQSYPFTFGGGTKVEIK
notes: Humanized from murine VII/20; also called HC3LC1 (CA9hu-1)
Regarding B5, the Kd in the experiment with recombinant human CA IX came to 91 nM.

B6: CA9hu-1_HC3LC5 (antibody, V domains shown)
VH: QVQLVQSGGGLVQPGRSLRLSCTASGFTFTDYYMHWVRQAPGKGLEWVGFIRNKASGYTPQYSASVKGRFTISRDDSKTIAYLQMNSLKTEDTAVYYCVRGGHAGSNYWYFDVWGQGTLVTVSS
VL: DIQMTQSPSSLSASVGDRVTITCHVSQNINVWLSWYQQKPGKAPKLLIYQASNLHTGVPSRFSGSGSGTDFTFTISSLQPEDIATYYCQQGQSYPFTFGQGTKLEIK
notes: Humanized from murine VII/20; also called HC3LC5 (CA9hu-1)
With B6, in the experiment with recombinant human CA IX, the Kd was 83 nM.

B7: CA9hu-1_HC4LC3 (antibody, V domains shown)
VH: EVQLVESGGGLVQPGGSLRLSCAASGFTFTDYYMHWVRQAPGRGLEWVAFIRNKASGYTPQYSASVKGRFTISRDNAENSLYLQMNSLRAEDTAVYYCVRGGHAGSNYWYFDVWGKGTTVTVSS
VL: DIQMTQSPSSLSASVGDRVTITCHVSQNINVWLSWYQQKPGEAPKLLIYQASNLHTGVPSRFSGSGSGTDFTLTISSLQPEDFATYYCQQGQSYPFTFGQGTKLEIK
notes: Humanized from murine VII/20; also called HC4LC3 (CA9hu-1)
Consider B7, for which the equilibrium dissociation constant (Kd) with recombinant human CA IX is 10.7 nM.

B8: CA9hu-1_HC4LC5 (antibody, V domains shown)
VH: EVQLVESGGGLVQPGGSLRLSCAASGFTFTDYYMHWVRQAPGRGLEWVAFIRNKASGYTPQYSASVKGRFTISRDNAENSLYLQMNSLRAEDTAVYYCVRGGHAGSNYWYFDVWGKGTTVTVSS
VL: DIQMTQSPSSLSASVGDRVTITCHVSQNINVWLSWYQQKPGKAPKLLIYQASNLHTGVPSRFSGSGSGTDFTFTISSLQPEDIATYYCQQGQSYPFTFGQGTKLEIK
notes: Humanized from murine VII/20; also called HC4LC5 (CA9hu-1)
Consider B8, for which the Kd with recombinant human CA IX amounted to 12.3 nM.

B9: CA9hu-1_HC5LC2 (antibody, V domains shown)
VH: EVQLVESGGGLVQPGGSLRLSCAASGFTFTDYYMHWVRQAPGKGLEWVGFIRNKASGYTPQYSASVKGRFTISRDDSKNSLYLQMNSLKTEDTAVYYCVRGGHAGSNYWYFDVWGQGTMVTVSS
VL: DIQMTQSPSTLSASVGDRVTITCHVSQNINVWLSWYQQKPGNAPKLLIYQASNLHTGVPSRFSGSGSGTEFTLTIGSLQPDDFVTYYCQQGQSYPFTFGQGTKVEIK
notes: Humanized from murine VII/20; also called HC5LC2 (CA9hu-1)
Turning to B9, the Kd in the experiment with recombinant human CA IX amounted to 52 nM.

B10: CA9hu-1_HC5LC5 (antibody, V domains shown)
VH: EVQLVESGGGLVQPGGSLRLSCAASGFTFTDYYMHWVRQAPGKGLEWVGFIRNKASGYTPQYSASVKGRFTISRDDSKNSLYLQMNSLKTEDTAVYYCVRGGHAGSNYWYFDVWGQGTMVTVSS
VL: DIQMTQSPSSLSASVGDRVTITCHVSQNINVWLSWYQQKPGKAPKLLIYQASNLHTGVPSRFSGSGSGTDFTFTISSLQPEDIATYYCQQGQSYPFTFGQGTKLEIK
notes: Humanized from murine VII/20; also called HC5LC5 (CA9hu-1)
For B10, in the experiment with recombinant human CA IX, the Kd was determined as 64 nM.

B11: CA9hu-1_HC5LC4 (antibody, V domains shown)
VH: EVQLVESGGGLVQPGGSLRLSCAASGFTFTDYYMHWVRQAPGKGLEWVGFIRNKASGYTPQYSASVKGRFTISRDDSKNSLYLQMNSLKTEDTAVYYCVRGGHAGSNYWYFDVWGQGTMVTVSS
VL: DIQMTQSPSSLSASVGDRVTINCHVSQNINVWLSWYQQKPGEAPKLLIYQASNLHTGVPSRFSGSGSGTGFTLTIRSLQPEDYATYYCQQGQSYPFTFGQGTKLEIK
notes: Humanized from murine VII/20; also called HC5LC4 (CA9hu-1)
In the case of B11, the Kd with recombinant human CA IX amounted to 54 nM.

B12: CA9hu-1 chimeric HC0LC0 (antibody, V domains shown)
VH: EVKLVESGGGLVQPGGSLRLSCATSGFTFTDYYMHWVRQPPGMALEWLAFIRNKASGYTPQYSASVKGRFTISRDVSQTILYLQMNTLRPEDSATYYCVRGGHAGSNYWYFDVWGAGTTVTVSS
VL: DIQMNQSPSSLSASLGDTITIACHVSQNINVWLSWYQQKPGNIPKLLIYQASNLHTGVPSRFTGSGSGTGFTLTISSLQPEDIATYYCQQGQSYPFTFGSGTKLEIK
notes: also called HC0LC0 (CA9hu-1); chimeric variant
With B12, the Kd with recombinant human CA IX came out at 22 nM.
